This series can be described thus: yeast display, Sf9 membrane polyspecificity reagent, FACS + sequencing; frameworks hold sequencing errors. In a few lines: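 Genes from sorted yeast were amplified by colony PCR, read by MiSeq 2 × 250 sequencing and filtered on CDR length. These cells carried a synthetic nanobody library in Saccharomyces cerevisiae BJ5465 and were sorted by FACS into low and high (top ~1%) gates on anti-HA and streptavidin fluorescence. Polyreactivity is labelled according to the gate of origin.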
As for “QVQLVGSGGGLVQAGGSLRLSCAASGSTFGYYAMGWYRQAPGKERELVAAITKSGGSTFYADSVKGRFTISRDNAKNTVYLQMNSLKPEDTAVYYCAARYKGQYYRQGRHDFWGQGTQVTVSS”, the “polyreactivity (PSR sort gate)” value was “high polyreactivity”.

“QVQLVQAGGGLVQAGGILRLSCAASGRIFRLYTMGWYRQAPGKERELVAAINSSGGNTYYADSVKGRFTISRDNAKNNVNLQMNSLKPEDTAVYYCAAGWSYPVRNIYYDWGQGTQVTVSS”: the “polyreactivity (PSR sort gate)” value is on record as “high polyreactivity”. Consider “QVQLVQSAGGLVQAGGSLRLSCAASGSILSINGMGSYRQAPGKERELVATIDGSDGSTFYADSVKGRLTISRDNAKNTVYFQMNSLKPEDTAVYYCAAENLWQTKEYDYWGLGTQVTVSS”, for which the “polyreactivity (PSR sort gate)” value is “low polyreactivity”.

Turning to “QVQLVQSCGCLVQAGGSLRLSCAASGRIFYGNDMGWNRQAPGKERDLVAAISSGTSTNYADSVKGRFTISRDNAMNTVYLQMNSLKPEVTAVYYWAAGSYSRYLYSLYFDFDYWGQGSQVTVSS”, the “polyreactivity (PSR sort gate)” value is “low polyreactivity”.

Regarding “QVQLVQSGAGLVQARGSLRLSCAASGSTFRRNVMGWYRQAPGTERELVAAISWSGTSTNYADSVKWRFTISRDNAKNTVYLQMNSLKPEDTAVYYCATQSLYYRWGLDYWGQGTQVTVSS”, the “polyreactivity (PSR sort gate)” value is on record as “high polyreactivity”.

Take “QVQLVQSGGGLVHAGGSLRLSCAASGGTFQRYVMGWYRQAPGKERELVAAISRSGSTYADSVKGRFTISRDNAKNTVYLEMNSLKPEDTAVYYCNTVYPGRDYCKFGYWGQGTQVTVSS”: the “polyreactivity (PSR sort gate)” value is on record as “high polyreactivity”. Take “QVQLVQSGGGLVQAGASLRLSCAASGSTFWKYAMGWYRQAPGQERELVASIRSGGSTYYADSVKGRFTISRDNAKNTVYLQMNSLIPEDTAVYYCAAVTHGRYDWVQGTQVTVSS”: the “polyreactivity (PSR sort gate)” value is listed as “high polyreactivity”. With “QVQLVQSGGGLVQAGGILRLSCAASGRTFSTNAMGRYIQAPGKERQLVAAITYGSSSTYYADSVKGRFTISRDNAKNTVYFKMNCLKPEDTAVYDCAAGGFFTHRRTYGYWGQGTQVTVSS” the entry was “high polyreactivity”; with “QVQLVQSGGGLVQAGGSLRLSCAASGFIFDTYTMGWYRQAPGKERQLVAAISRSGASTYYADSVKGRFTISRDNAKNTVYLQMNSLKPEDTAVYYCATVYYPSYRGGYDYWGQGTQVTVSS”, “high polyreactivity”. With “QVQLVQSGGGLVQAGGSLRLSCAASGITFEYNTMGWYRQAPGKERELVAAITQGGGTTNYADSVKGRFTISRDNAKNTVYLQMNSLKPEDTAVYYCAAFVGYLLLYYPTYYYWGQGTEVTVSS” the entry was “low polyreactivity”; with “QVQLVQSGGGLVQAGGSLRLSCAASGLIFRYYTMGWYRQAPGKERELVAAISSGGSTRYADSVKGRFTISRDNAKNTVYLQMNSLKPEDTAVYYCAAKLYYYVQGRYNYWGQGTQVTVSS”, “high polyreactivity”; with “QVQLVQSGGGLVQAGGSLRLSCAASGLIFTTNPMGWYRQAPGKERQFVAAISPSGGSTYYADSVKGRFTISRDNAKNTVYLQMNCLKPEDTAVYSCGARYSPVWHKYYYWGQGTQVTVSS”, “high polyreactivity”. For “QVQLVQSGGGLVQAGGSLRLSCAASGRIFGLNTMGWYRQAPGKERELVAAITSSAGSTYYADSVKGRFPISRDNAKNTVSLQMNSLKPEDTAVYYCAARVSYLGSFTSQRYYYWGQGTQVTVSS”, the “polyreactivity (PSR sort gate)” value is listed as “high polyreactivity”.

As to “QVQLVQSGGGLVQAGGSLRLSCAASGRTFYYYPMGWYRPAPGKERELVAAIRWRGGRTYADSVKGRFTISRDNAKNTVYLQMNSLKPEDTAVYYCAVESFYRHASLYDYWGQGTQVTVSS”, the “polyreactivity (PSR sort gate)” value is given as “high polyreactivity”. With “QVQLVQSGGGLVQAGGSLRLSCAASGSIFGYYAKGWNRQAPGKERQLVAAIDSRGGSTYYADSVKGRFTISRDNEKNTVYLQMNSLKTEDTAVYYCAARLRYPRRGQGDNYRGQGTQVTVSS” the entry was “low polyreactivity”. On to “QVQLVQSGGGLVQAGGSLRLSCAASGSTFLSKAMGWYRQAPWKERQLVAAITTSGTSTFYADSVKGRFTISRDNAKNTVYLQMNSLKPADTAVYCAKDYLPYLHFVAPSTGDYDYWGQGTQVTVSS”, for which the “polyreactivity (PSR sort gate)” value is recorded as “low polyreactivity”. With “QVQLVQSGGGLVQAGGSLRLSCAASGSTFRIYAMGWYRQAPGKEREFVAAISDRGGRTYYADSVKGRFTISRDNAKNTVYLQMNSLKPEDTAVYYCAAVKLLSSAPGDDCQMNYWGQGTQVTVSS”, the “polyreactivity (PSR sort gate)” value is on record as “low polyreactivity”. The entry for “QVQLVQSGGGLVQAGGSLRLSCAASGSTFYQYAMGWYRQSPGKERELVAAISRSGSTNYADSVKGRFTHSRDNAQNTVYLQMNSMKPEDSAVYYCAARLGTRQYKMDYWGQGTQVTVSS” is “high polyreactivity”; for “QVQLVQSGGGLVQAGGSLRLSCAASGTTFRIYAMGWYRQAPGKEREFVAAISDRGGRTYYADSVKGRFTISRDNAKNTVYLQMNSLKPEDTAVYYCAAVKLLSSAPGDDGKMNYWGQGTQVTVSS” it is “low polyreactivity”. As for “QVQLVQSGGGLVQAGGSLRLSYAASGRIFSPNAMGWYRQAPGKERELVAAISYRGANTYYADSVKGRFTISRDNAKNTVDLQMHSLKPEDTAVYYCATRSTHYWGQGTQVTVSS”, the “polyreactivity (PSR sort gate)” value is “high polyreactivity”. The entry for “QVQLVQSGGGLVQAGGSLRVSSAASGNIFAYYAKGWYSQAPGKERELVAAITDSGGNTFYADSVKGRFTISRDQAKNTVYLQMNSLKPEDTAVYYCAADTFYSYYDMDYWGQGTQVTVSS” is “low polyreactivity”; for “QVQLVQSGGGLVQAGVSLRLSCAASGLIIGVYAMGWYRQAPGKERELVAAITDGGSTYYADSVKGRFTISRDNAKNTVYLQMHSLKPEDTAVYYCNAEFRSSDYDYWGQGTQVTVSS” it is “low polyreactivity”; for “QVQLVQSRRGLVQAGCSLRLSCAASGRTFVIYAMGWYRQAPGKERELVAAISKGGGSTYYADSVKGRFTISRDNAKNTVYLQMNSLKPEDTAVYYCAVEASRAGAWYEYWGQGTQVTVSS” it is “high polyreactivity”. The entry for “QVQLVQSVGGLVQAGGSLRLSCAASGSIFIWNAMGWYRQAPGKVRELVAAISFTGTSTYYADSVTGRFTISRDNAKNTVYLEMNSLKPEDNAVYYCNNDYRGSQYDYWGQGTQVTVSS” is “low polyreactivity”; for “QVQLVQTGGGVVQAGGSLRLSCAASGRIFNSYPMGWYRQAPGKERELVASINRYGGSTYYADSVKGRFTISRDNAKNTVYLQMYSLNPEDTSVYYCAARGYTSFNTGYGYWGQGTQVSVSS” it is “high polyreactivity”; for “QVQLVSSGGGLVLAGGSLRLSCAASGRTIQDNAMGWYTQAPGKERELVAAISWRGGSTNYADSVKGRFTISRDNAKNTVYLQMNSLKPEDTAVYYCNRDPRKYGKLDYWGQGTQVTVSS” it is “low polyreactivity”.

Turning to “QVQLVVSGGGLVQAGGSLRLSCAASGFTFSSNAMGWYRQAPGKECELVAAISTSGASTYYADSVKGRFTISRDNAKNTVYLQMNSLKPADSAVYYCNVPQWHRWYGYPGEDYDYWGQGTQVTVSS”, the “polyreactivity (PSR sort gate)” value was “high polyreactivity”. With “QVQLVVSGGGLVQAGGSLRLSCAASGIIFSPYALGWYIQAPGKERELVAAISYSGGSTYYADSVKGRFTISRDNAKNTVYLQMNSLKPEDTAVYYCAVVYSYYLAVMGYWDYDYWGQGTQVTVSS” the entry was “low polyreactivity”; with “QVQLVVSGGGLVQAGGSLRLSCAASGITFGRNTMGWYRQAPGKERELVAAIDSGGNTYADSVKGRFTISRDNAKNTVYLQMNSLKPEDTAVYYCAVDGGEFSSYGYWGQGTQVTVSS”, “low polyreactivity”; with “QVQLVVSGGGLVQAGGSLRLSCAASGRIFWFNAMGWYRQAPGKEREFVATITYRGGSTYYADSVKGRFTISRDNAKNTVYLQMNSLLPEDTAVYYCAASVSYRRYHRFGYWGQGTQVTVSS”, “high polyreactivity”.
